In paper PMC5293408 (Biochemistry, 2016):
Residue numbers refer to the chain shown, from its start. Numbers in names are those of the source. Where “and” joins values, the source holds several entries; their conditions need not be identical. Equal entries are not always repeated. Where two headings read alike, the source gives them in different places. One block for each molecule: values may come before it.

What was measured:
[1] = molecular target: T1, hUGDHA136M (human UDP-glucose dehydrogenase A136M) (Homo sapiens, UniProt O60701, A136M); assay: steady-state kinetics, global fit of competitive inhibition; format: biochemical
T1 sequence (O60701 1-494 A136M): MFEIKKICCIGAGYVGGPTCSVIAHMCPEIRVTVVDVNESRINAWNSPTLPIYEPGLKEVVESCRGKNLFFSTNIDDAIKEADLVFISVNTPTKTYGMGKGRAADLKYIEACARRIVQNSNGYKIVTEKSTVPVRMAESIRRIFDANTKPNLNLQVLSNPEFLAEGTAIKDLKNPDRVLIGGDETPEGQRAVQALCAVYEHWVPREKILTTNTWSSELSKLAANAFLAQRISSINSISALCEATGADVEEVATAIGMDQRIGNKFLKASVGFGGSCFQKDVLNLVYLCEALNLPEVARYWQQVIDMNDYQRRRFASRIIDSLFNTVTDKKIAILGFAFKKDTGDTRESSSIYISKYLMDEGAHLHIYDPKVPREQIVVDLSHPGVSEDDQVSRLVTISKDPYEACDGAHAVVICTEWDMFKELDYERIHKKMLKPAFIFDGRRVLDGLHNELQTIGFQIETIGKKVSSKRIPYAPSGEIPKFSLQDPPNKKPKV

[2] = substrate: NC(=O)c1ccc[n+]([C@@H]2O[C@H](COP(=O)([O-])OP(=O)(O)OC[C@H]3O[C@@H](n4cnc5c(N)ncnc54)[C@H](O)[C@@H]3O)[C@@H](O)[C@H]2O)c1; assay: steady-state NAD+ saturation kinetics; format: biochemical, Homo sapiens; conditions: NAD+ binding domain (NB); varied: cofactor
AUC [3] = molecular target: the molecule itself; assay: AUC
AUC [4] = molecular target: the molecule itself; assay: AUC; remark: listed apart in the source

Ki [1]: 4.2 µM
Molecule: O=c1ccn([C@@H]2O[C@H](COP(=O)(O)OP(=O)(O)O[C@H]3OC[C@@H](O)[C@H](O)[C@H]3O)[C@@H](O)[C@H]2O)c(=O)[nH]1 [UDP-xylose]

B1: Human UDP-glucose dehydrogenase with the A136M substitution (enzyme)
chain: T1 sequence (O60701 1-494 A136M)
Km [2]: 90 µM
stoichiometry N (AUC [3]): 6 and 2 and 4

B2: Human UDP-glucose dehydrogenase (enzyme, UniProt O60701 1-494, looked up)
chain: T1 sequence (O60701 1-494 A136M) with M136A
stoichiometry N (AUC [4]): 2 and 4
stoichiometry N (AUC [3]): 6
